The text below walks through data of PMC9018508.

The assay deals with CD40L (UniProt P29965). The assay can be described thus: SPR. A general note: Surface plasmon resonance follows binding to a sensor surface in real time, without labels.
UniProt P29965, sequence (P29965 116-261): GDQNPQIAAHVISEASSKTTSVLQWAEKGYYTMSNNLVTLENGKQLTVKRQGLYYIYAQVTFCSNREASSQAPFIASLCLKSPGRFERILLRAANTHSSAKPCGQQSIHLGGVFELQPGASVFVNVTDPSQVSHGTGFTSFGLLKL

With 5c8Ile^L98 → 7-HCAA Fab, the Kd (in general, the concentration at which binding is half-saturated) was 41.6 nM.
